According to the supplement of paper PMC9170038:

Test system: MS2 coat protein
Assay: apparent KD of MS2 coat protein; designed switch direction (-1 OFF switch, 1 ON switch): 1; higher = weaker reporter binding
Procedure, shortened: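 An oligonucleotide input, 200 uM small-molecule ligand, or no input was present during titration of SNAP-549-labelled MS2 coat protein, which was doubled from 0.7 or 1.5 nM to 3 µM. Designed RNA switches had been transcribed on Illumina chips by stalled E. coli RNA polymerase. Apparent KD per design is the median over clusters of curves fitted to normalised cluster fluorescence.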

[1] = Eterna round: R95, input ligand: FMN 200 uM
[2] = Eterna round: R95, input ligand: microRNA oligo, concentration not stated
[3] = Eterna round: R95, input ligand: none
[4] = input ligand: microRNA oligo, concentration not stated

Sequence | apparent KD of MS2 coat protein [1] [nM] | apparent KD of MS2 coat protein [2] [nM] | apparent KD of MS2 coat protein [3] [nM] | apparent KD of MS2 coat protein (input ligand: FMN 200 uM) [nM] | apparent KD of MS2 coat protein [4] [nM] | apparent KD of MS2 coat protein (input ligand: none) [nM]
AAAAGACAUGAGGAUCACCCAUGUACCAGGUCCACAGGAUAUCAUGCGUGGUUGAAUUCAUGAGAAGGGUGAGACA [Getied] (puzzle: Same State 1) | 48.7 | 188 | 311 | – | – | –
AAAAGACAUGAGGAUCACCCAUGUAUGAAAAGUACAGGAUAUCACGAGCUAAAGUGCGAGUGAGAAGGGUGAAAAU [Araceesge] (puzzle: Same State 1) | 60.9 | 41.9 | 37.1 | – | – | –
AAAAGUUGCGGGCAGGAUAUGUAUUAAAAUACAUGAGGAUCACCCAUGUGCGGGUAUAACACCCGACAGAAGGGCCAAACGCGAC [Mat - Same State 2 - Mod of UCT - D96] (puzzle: Same State 2) | 27.4 | 178 | 333 | – | – | –
AAACAUGAGGAUCACCCAUGUCGAUUAAAACCCUAAUCUACUCAGGAUAUCCGAAUGCGCGUUUCGGAGAAGGGAGAAAUGUGA [Isessoreri] (Eterna round: R96, puzzle: Same State NG 3) | – | – | – | 27 | 37.5 | 31.7
AAACGGCCCAACGAAGGGCCACAUGAGGAUCACCCAUGUACAUAGGAUAUCACGCCAACAAAGCGUGAGAAGGGUGAUUAAAAC [Lezaer] (Eterna round: R96, puzzle: Same State NG 3) | – | – | – | 270 | 11.6 | 163
AAAGAAACAUGAGGAUCACCCAUGUACCGCGGAAUGUGUGCACAGGAUAUGUACAGCUUUUGCUUACAGAAGGGUGCGCCCGUG [Enorso] (Eterna round: R96, puzzle: Same State NG 3) | – | – | – | 20.8 | 38.7 | 70
AAAGAUGGACAUGAGGAUCACCCAUGUGGAAAGUGAACAAGCUUUUGCUCGUGACAAAUGAACAAUCCAAUCCUAAA [mksensor] (puzzle: Sensor for hsa-mir-208a version 2) | 26.3 | 24.5 | 25 | – | – | –
AAAGGAUGAUGUUACAUGAGGAUCACCCAUGUUGUGAUAACUAAGGAUAUGUGUUUAACCAGUUAAUAGAAGGUAGGAUCAUAA [AK SSNG3-V2-4] (Eterna round: R96, puzzle: Same State NG 3) | – | – | – | 168 | 97.4 | 124
AACAAUCUAUCUGAGGAUAUCAUGAAAUAAACAUGAGGAUCACCCAUGUGCAGGAUAACUGCAUAUGAGAAGGCAGAUAGAUUGA [salish99_ss2_r3_041] (puzzle: Same State 2) | 57.3 | 661 | 656 | – | – | –
AACACACAUGAGGAUCACCCAUGUACCGAAAUCACAGGAUAUACAUAACUGAAUAACAUUGUAGAAGGGUGGCCGG [Enorerteso] (puzzle: Same State 1) | 23.7 | 65.7 | 91.4 | – | – | –
AACAGUCGGCGAGGAUAUGGACGGACAGGCUUGCCUGUGCGGCUCACAUGAGGAUCACCCAUGUUCUAGAAGGCGCCACUGAGA [Atteve] (Eterna round: R96, puzzle: Same State NG 2) | – | – | – | 21.3 | 50 | 81.7
AACAGUCGGCGAGGAUAUGGACGUACGGACUAACCCAUACGGCUCACAUGAGGAUCACCCAUGUUCUAGAAGGCGCCACUGAAA [Soisce] (Eterna round: R96, puzzle: Same State NG 2) | – | – | – | 18.1 | 22.8 | 66.7
AACUAUCUAUCUCAGGAUAUCAUGUCAAAGACAUGAGGAUCACCCAUGUACCAGGAAACUGGUUAUGAGAAGGGAGAUAGAUAGA [Mat - Same State 2 - Mod - D38] (puzzle: Same State 2) | 92.5 | 87.7 | 97 | – | – | –
AAGAAACAUGAGGAUCACCCAUGUCGAGAGAGACGAGGAUAUCUGAAUCGAUUAGAUUACGGAGAAGGCGUGAAAA [Same State 1.2 (Same State of Confusion2 - minimal change )] (Eterna round: R96, puzzle: Same State 1) | – | – | – | 22.1 | 22 | 27
AAGAAACAUGAGGAUCACCCAUGUGAUAAUAUGGGAGGAUAUACAAAGACGAAAGUCGAAGUAGAAGGCCUAUGAA [Garnet 43] (Eterna round: R96, puzzle: Same State 1) | – | – | – | 46.4 | 50.9 | 68.7
AAGUAACAUGAGGAUCACCCAUGUGAGGUGAGCGUAGGAUAUCGAGAAGGAAGGGUGGAGCGAGAAGGACGAGAGG [JR_SS1_Sub0100] (puzzle: Same State 1) | 191 | 401 | 270 | – | – | –

Sequence | apparent KD of MS2 coat protein [1] [nM] | apparent KD of MS2 coat protein [2] [nM] | apparent KD of MS2 coat protein [3] [nM] | apparent KD of MS2 coat protein (input ligand: FMN 200 uM) [nM] | apparent KD of MS2 coat protein [4] [nM] | apparent KD of MS2 coat protein (input ligand: none) [nM]
AAGUUAAGCUUUUUGUUCUGCCUAUUCCAACAUGAGGAUCACCCAUGUAGUCUGACGAUUGUGUGUGUAGUUGAGAU [JR_SHM208A_Sub028] (puzzle: Sensor for hsa-mir-208a) | 51.8 | 63.5 | 57.9 | – | – | –
AAGUUACUAUCUCAGGAUAUCAUGUCAAAGACAUGAGGAUCACCCAUGUACCAGGAAACUGGUUAUGAGAAGGGAGAUAGUAACU [Mat - Same State 2 - Mod - D54] (puzzle: Same State 2) | 156 | 204 | 819 | – | – | –
AAUCGUUUAAUAGGAUAUCGCUAUACAUGAGGAUCACCCAUGUUUACCACGCUGGUUUUUCGUACCGAGAAGGAUUCUGAUGAU [JL JR sub007 mod 8] (Eterna round: R96, puzzle: Same State NG 2) | – | – | – | 36.6 | 26.5 | 39.9
AAUCGUUUGAUAGGAUAUCGCUAUACAUGAGGAUCACCCAUGUUUACCACACUGGUUUUUCGUACCGAGAAGGAUUCUGAUGAU [JL JR sub007 mod 9] (Eterna round: R96, puzzle: Same State NG 2) | – | – | – | 40.2 | 33.1 | 43.5
AAUUAAGAUCAAGGAUAUCACGUCGAAUAGACGUGAGAAGGUGAUAAUUACAUGAGGAUCACCCAUGUAUAACAUGAAUUAAUU [SSNG1/9-B1] (Eterna round: R96, puzzle: Same State NG 1) | – | – | – | 30 | 24.8 | 38
AAUUAAUUAAUACAUGAGGAUCACCCAUGUAAUUAUUAGAUCAAGGAUAUCAGCUCGUUUAGAGCUGAGAAGGUGAUCACAUGU [SSNG3/18-A3] (Eterna round: R96, puzzle: Same State NG 3) | – | – | – | – | 211 | –
AAUUCACGAGCACAGGAUAUGCUUGCCAACACAUGAGGAUCACCCAUGUCGGGCUACGAAUAAGAGCAGAAGGGUGACUCAUGAU [Atesusgela] (puzzle: Same State 2) | 16.8 | 19.2 | 13.9 | – | – | –
AAUUGUUUCUGAGGAUAUCAGUAGUAUGCCAAUUGAGAAGGCAGUACAUGAGGAUCACCCAUGUUGUGGUUUGAUAGAAUGAUA [JR_SSNG1_Sub002] (Eterna round: R96, puzzle: Same State NG 1) | – | – | – | 170 | 143 | 181
ACAAGCUUUUUGCUCCUCUUAUGUCCGAAACAUGAGGAUCACCCAUGUAUAGAUUGUGUGUUGUUGUAGAUGCAAGA [JR_SHM208A_Sub061] (Eterna round: R96, puzzle: Sensor for hsa-mir-208a) | – | – | – | 73.8 | 63.4 | 74.1
ACAAGCUUUUUGCUCCUCUUAUGUCCGAAACAUGAGGAUCACCCAUGUAUAGAUUGUGUGUUGUUGUAGAUGCAAGA [JR_SHM208A_Sub061] (puzzle: Sensor for hsa-mir-208a) | 69.3 | 72 | 71.8 | – | – | –
ACAUAGGUUUCAGGAUAUGGGUAAAUUCCCAACAUGAGGAUCACCCAUGUCCGUAGGGAUAACAUCCAGAAGGGAAGCCACAUA [MOD Eternabot Solution 1 (Score 87.5)] (Eterna round: R96, puzzle: Same State NG 2) | – | – | – | 89.3 | 100 | 59.4
ACAUGAAAUUUAGGAUAUUUUGUACCUACAUGUGACAUGAGGAUCACCCAUGUGGUAAGUAUGAGAAAGAAGGAAAAGAUAUGU [Equivalence 9 - Jieux - Same State NG 2] (Eterna round: R96, puzzle: Same State NG 2) | – | – | – | 71.8 | 61.6 | 70.9
ACAUGAGACUUAGGAUAUCUUGUACCUACAUGUGACAUGAGGAUCACCCAUGUGGUAAGUAUGAGAGAGAAGGAAGAGAUAUGU [Equivalence 37 - Jieux - Same State NG 2] (Eterna round: R96, puzzle: Same State NG 2) | – | – | – | 19.7 | 14.4 | 23.2
ACAUGAGACUUAGGAUAUGUUGUACCUACAUGUGACAUGAGGAUCACCCAUGUGGUAAGUAUGAGGCAGAAGGGAGAGAUAUGU [Equivalence 47 - Jieux - Same State NG 2] (Eterna round: R96, puzzle: Same State NG 2) | – | – | – | 54.3 | 85.6 | 77.7
ACAUGAGGAGCAGGAUAUCGCAUGAGGAUCACCCGAGAAGGGCUCACACAUGAGGAUCACCCAUGUAUCACCCAUGUAUGUUGA [twils 1] (Eterna round: R96, puzzle: Same State NG 1) | – | – | – | 484 | 105 | 498
